B1: Serrate (Drosophila), expression construct Ser-mtn (ligand, UniProt P18168 83-1407, looked up)
chain: AGNFELEILEISNTNSHLLNGYCCGMPAELRATKTIGCSPCTTAFRLCLKEYQTTEQGASISTGCSFGNATTKILGGSSFVLSDPGVGAIVLPFTFRWTKSFTLILQALDMYNTSYPDAERLIEETSYSGVILPSPEWKTLDHIGRNARITYRVRVQCAVTYYNTTCTTFCRPRDDQFGHYACGSEGQKLCLNGWQGVNCEEAICKAGCDPVHGKCDRPGECECRPGWRGPLCNECMVYPGCKHGSCNGSAWKCVCDTNWGGILCDQDLNFCGTHEPCKHGGTCENTAPDKYRCTCAEGLSGEQCEIVEHPCATRPCRNGGTCTLKTSNRTQAQVYRTSHGRSNMGRPVRRSSSMRSLDHLRPEGQALNGSSSPGLVSLGSLQLQQQLAPDFTCDCAAGWTGPTCEINIDECAGGPCEHGGTCIDLIGGFRCECPPEWHGDVCQVDVNECEAPHSAGIAANALLTTTATAIIGSNLSSTALLAALTSAVASTSLAIGPCINAKECRNQPGSFACICKEGWGGVTCAENLDDCVGQCRNGATCIDLVNDYRCACASGFKGRDCETDIDECATSPCRNGGECVDMVGKFNCICPLGYSGSLCEEAKENCTPSPCLEGHCLNTPEGYYCHCPPDRAGKHCEQLRPLCSQPPCNEGCFANVSLATSATTTTTTTTTATTTRKMAKPSGLPCSGHGSCEMSDVGTFCKCHVGHTGTFCEHNLNECSPNPCRNGGICLDGDGDFTCECMSGWTGKRCSERATGCYAGQCQNGGTCMPGAPDKALQPHCRCAPGWTGLFCAEAIDQCRGQPCHNGGTCESGAGWFRCVCAQGFSGPDCRINVNECSPQPCQGGATCIDGIGGYSCICPPGRHGLRCEILLSDPKSACQNASNTISPYTALNRSQNWLDIALTGRTEDDENCNACVCENGTSRCTNLWCGLPNCYKVDPLSKSSNLSGVCKQHEVCVPALSETCLSSPCNVRGDCRALEPSRRVAPPRLPAKSSCWPNQAVVNENCARLTILLALERVGKGASVEGLCSLVRVLLAAQLIKKPASTFGQDPGMLMVLCDLKTGTNDTVELTVSSSKLNDPQLPVAVGLLGELLSFRQLNGIQRRKELELQHAKLAALTSIVEVKLETARVADGSGHSLLIGVLCGVFIVLVGFSVFISLYWKQRLAYRTSSGMNLTPSLDALRHEEEKSNNLQNEENLRRYTNPLKGSTSSLRAATGMELSLNPAPELAASAASSSALHRSQPLFPPCDFERELDSSTGLKQAHKRSSQILLHKTQNSDMRKNTVGSLDSPRKDFGKRSINCKSMPPSSGDEGSDVLATTVMV
notes: whole, on cells
B2: Delta (Drosophila), expression construct pMTDl1 (ligand)
chain: QVHSSGSFELRLKYFSNDHGRDNEGRCCSGESDGATGKCLGSCKTRFRVCLKHYQATIDTTSQCTYGDVITPILGENSVNLTDAQRFQNKGFTNPIQFPFSFSWPGTFSLIVEAWHDTNNSGNARTNKLLIQRLLVQQVLEVSSEWKTNKSESQYTSLEYDFRVTCDLNYYGSGCAKFCRPRDDSFGHSTCSETGEIICLTGWQGDYCHIPKCAKGCEHGHCDKPNQCVCQLGWKGALCNECVLEPNCIHGTCNKPWTCICNEGWGGLYCNQDLNYCTNHRPCKNGGTCFNTGEGLYTCKCAPGYSGDDCENEIYSCDADVNPCQNGGTCIDEPHTKTGYKCHCANGWSGKMCEEKVLTCSDKPCHQGICRNVRPGLGSKGQGYQCECPIGYSGPNCDLQLDNCSPNPCINGGSCQPSGKCICPAGFSGTRCETNIDDCLGHQCENGGTCIDMVNQYRCQCVPGFHGTHCSSKVDLCLIRPCANGGTCLNLNNDYQCTCRAGFTGKDCSVDIDECSSGPCHNGGTCMNRVNSFECVCANGFRGKQCDEESYDSVTFDAHQYGATTQARADGLTNAQVVLIAVFSVAMPLVAVIAACVVFCMKRKRKRAQEKDDAEARKQNEQNAVATMHHNGSGVGVALASASLGGKTGSNSGLTFDGGNPNIIKNTWDKSVNNICASAAAAAAAAAAADECLMYGGYVASVADNNNANSDFCVAPLQRAKSQKQLNTDPTLMHRGSPAGSSAKGASGGGPGAAEGKRISVLGEGSYCSQRWPSLAAAGVAGACSSQLMAAASAAGSGAGTAQQQRSVVCGTPHM
notes: also called Delta+ cells; L49-6-7 stably transformed Delta expressing cell line

Key:
[1] = target: Delta (Drosophila), expression construct pMTDl1 (Drosophila) (UniProt P10041); experiment: S2 cell aggregation, 24 hr
[2] = target: Delta (Drosophila), expression construct pMTDl1 (Drosophila) (UniProt P10041); experiment: S2 cell aggregation, 48 hr
[3] = target: Notch (Drosophila), full length Notch expression construct #1 pMtNMg (Drosophila) (UniProt P07207); experiment: S2 cell aggregation, 24 hr, Notch+ cells alone
[4] = target: Delta (Drosophila), expression construct pMTDl1 (Drosophila) (UniProt P10041); experiment: S2 cell aggregation at 4 C, 1-2 hr, Notch+ cells pretreated with preimmune mouse sera (control; one of three experiments)
[5] = target: the molecule itself; experiment: S2 cell aggregation assay
Text: (§1) FIG. 2. Notch Expression Constructs and the Deletion Mapping of the Delta/Serrate Binding Domain. S2 cells in log phase growth were transiently transfected with the series of expression constructs shown; the drawings represent the predicted protein products of the various Notch deletion mutants created. All expression constructs were derived from construct #1 pMtNMg. Transiently transfected cells were mixed with Delta expressing cells from the stably transformed line L49-6-7 or with transiently transfected Serrate expressing cells, induced with CuSO₄, incubated under aggregation conditions and then scored for their ability to aggregate using specific antisera and immunofluorescence microscopy. Aggregates were defined as clusters of four or more cells containing both Notch and Delta/Serrate expressing cells. The values given for % Aggregation refer to the percentage of all Notch expressing cells found in such clusters either with Delta (Dl) (left column) or with Serrate (Ser) (right column). The various Notch deletion constructs are represented diagrammatically with splice lines indicating the ligation junctions. Each EGF repeat is denoted as a stippled rectangular box and numbers of the EGF repeats on either side of a ligation junction are noted. At the ligation junctions, partial EGF repeats produced by the various deletions are denoted by open boxes and closed brackets (for example see #23 ΔCla+EGF(10-12)). Constructs #3-13 represent the ClaI deletion series. As diagrammed, four of the ClaI sites, in repeats 7, 9, 17 and 26, break the repeat in the middle, immediately after the third cysteine (denoted by open box repeats; see FIG. 3 for further clarification), while the fifth and most 3′ site breaks neatly between EGF repeats 30 and 31 (denoted by closed box repeat 31; again see FIG. 3). In construct #15 split, EGF repeat 14 which carries the split point mutation, is drawn as a striped box. In construct #33 ΔCla+XEGF(10-13), the Xenopus Notch derived EGF repeats are distinguished from Drosophila repeats by a different pattern of shading. […]

[6] = target: T1, Notch (Drosophila), full length Notch expression construct #1 pMtNMg (Drosophila, UniProt P07207 53-2703); experiment: S2 cell aggregation assay
T1 construct: whole, on cells; also called intact Notch; Notch+ cells
Text: as §1

[7] = target: B1; experiment: S2 cell aggregation assay
Text: as §1

T1 sequence (P07207 53-2703): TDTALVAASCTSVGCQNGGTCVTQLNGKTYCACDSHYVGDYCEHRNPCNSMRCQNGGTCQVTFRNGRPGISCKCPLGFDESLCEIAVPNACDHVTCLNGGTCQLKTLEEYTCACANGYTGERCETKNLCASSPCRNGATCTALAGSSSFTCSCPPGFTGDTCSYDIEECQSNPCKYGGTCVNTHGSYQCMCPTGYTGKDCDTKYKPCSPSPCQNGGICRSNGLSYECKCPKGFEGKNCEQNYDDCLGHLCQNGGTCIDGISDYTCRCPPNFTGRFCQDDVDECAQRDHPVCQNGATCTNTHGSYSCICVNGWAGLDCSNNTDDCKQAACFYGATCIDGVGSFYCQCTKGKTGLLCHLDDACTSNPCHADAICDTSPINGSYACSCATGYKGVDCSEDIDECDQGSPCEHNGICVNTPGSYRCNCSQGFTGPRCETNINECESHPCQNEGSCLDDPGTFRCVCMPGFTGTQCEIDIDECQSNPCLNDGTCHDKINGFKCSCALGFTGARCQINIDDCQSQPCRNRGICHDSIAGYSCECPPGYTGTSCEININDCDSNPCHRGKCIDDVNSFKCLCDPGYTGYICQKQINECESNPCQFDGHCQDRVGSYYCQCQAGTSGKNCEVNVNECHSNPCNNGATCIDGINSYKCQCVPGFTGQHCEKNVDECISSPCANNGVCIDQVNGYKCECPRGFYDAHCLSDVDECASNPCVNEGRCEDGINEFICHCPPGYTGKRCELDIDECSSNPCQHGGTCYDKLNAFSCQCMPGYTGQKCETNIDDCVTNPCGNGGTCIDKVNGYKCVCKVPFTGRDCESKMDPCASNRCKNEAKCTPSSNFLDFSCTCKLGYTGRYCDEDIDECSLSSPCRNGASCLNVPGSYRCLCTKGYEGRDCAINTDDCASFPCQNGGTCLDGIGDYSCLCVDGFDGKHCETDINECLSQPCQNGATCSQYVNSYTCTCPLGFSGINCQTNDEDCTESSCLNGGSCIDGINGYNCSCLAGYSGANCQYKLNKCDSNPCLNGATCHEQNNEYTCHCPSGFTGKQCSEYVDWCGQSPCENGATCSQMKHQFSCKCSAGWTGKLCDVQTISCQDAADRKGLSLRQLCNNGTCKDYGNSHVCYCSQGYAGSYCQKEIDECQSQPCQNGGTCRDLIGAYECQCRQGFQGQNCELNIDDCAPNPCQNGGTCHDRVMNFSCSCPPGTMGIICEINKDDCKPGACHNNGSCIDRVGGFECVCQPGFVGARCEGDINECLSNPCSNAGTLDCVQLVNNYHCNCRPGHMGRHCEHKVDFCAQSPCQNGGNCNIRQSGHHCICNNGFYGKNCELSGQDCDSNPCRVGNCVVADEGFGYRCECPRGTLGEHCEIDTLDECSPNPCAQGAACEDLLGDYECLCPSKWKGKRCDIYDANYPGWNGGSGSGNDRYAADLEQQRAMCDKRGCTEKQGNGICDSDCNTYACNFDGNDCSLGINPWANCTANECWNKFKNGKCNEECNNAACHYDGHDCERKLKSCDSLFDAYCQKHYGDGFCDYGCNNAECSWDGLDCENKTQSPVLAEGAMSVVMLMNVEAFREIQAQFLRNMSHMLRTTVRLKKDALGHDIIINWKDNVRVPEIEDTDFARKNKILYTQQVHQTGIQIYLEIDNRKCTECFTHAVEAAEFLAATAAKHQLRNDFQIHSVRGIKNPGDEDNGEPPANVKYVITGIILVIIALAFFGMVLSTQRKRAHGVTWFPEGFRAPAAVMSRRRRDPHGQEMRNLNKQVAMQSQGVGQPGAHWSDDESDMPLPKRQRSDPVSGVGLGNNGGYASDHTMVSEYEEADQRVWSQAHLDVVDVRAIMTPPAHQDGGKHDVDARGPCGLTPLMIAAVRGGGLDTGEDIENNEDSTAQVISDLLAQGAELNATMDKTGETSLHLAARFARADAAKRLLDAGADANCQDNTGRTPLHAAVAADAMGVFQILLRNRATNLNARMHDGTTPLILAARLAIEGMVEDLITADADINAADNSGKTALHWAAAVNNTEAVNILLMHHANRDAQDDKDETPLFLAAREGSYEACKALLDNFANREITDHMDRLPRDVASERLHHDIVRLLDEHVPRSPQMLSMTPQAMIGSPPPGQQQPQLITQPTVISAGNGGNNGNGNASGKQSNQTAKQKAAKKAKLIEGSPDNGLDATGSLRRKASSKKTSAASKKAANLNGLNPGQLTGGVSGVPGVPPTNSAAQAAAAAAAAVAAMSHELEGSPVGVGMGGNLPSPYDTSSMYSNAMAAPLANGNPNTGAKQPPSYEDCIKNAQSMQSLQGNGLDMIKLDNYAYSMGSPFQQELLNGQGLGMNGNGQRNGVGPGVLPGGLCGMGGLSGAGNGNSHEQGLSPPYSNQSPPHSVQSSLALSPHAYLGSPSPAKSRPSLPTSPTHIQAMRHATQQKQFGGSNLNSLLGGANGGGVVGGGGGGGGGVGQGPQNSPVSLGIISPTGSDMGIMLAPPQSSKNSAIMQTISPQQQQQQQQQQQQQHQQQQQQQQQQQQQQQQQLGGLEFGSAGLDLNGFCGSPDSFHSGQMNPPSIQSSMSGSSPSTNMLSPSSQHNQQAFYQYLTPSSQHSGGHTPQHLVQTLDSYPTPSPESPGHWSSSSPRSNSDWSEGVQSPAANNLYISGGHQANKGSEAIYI

Work on “Notch (Drosophila), full length Notch expression construct #1 pMtNMg, P07207 53-2703” yielded a fraction of expressing cells found in clusters of four or more stained cells [1] of 32 to 54%, a degree of aggregation [2] of 63 to 71% and a fraction of expressing cells found in clusters of four or more stained cells [3] of -0 to 5%. It also gave a % of Notch+ cells in Notch+-Delta+ cell aggregates [4] of 23%.

B1: no binding [5].

B2: binds [6]; no binding [7].

From patent US20050112121A1 (YALE UNIVERSITY, published 2005)
